Molecular target: recombinant CD47 protein (Homo sapiens, UniProt Q08722)
Assay: SPR, CD47 conjugated to CM5 chip
Details: 250 RU CD47, 1:1 binding model
Description: Specifically, the recombinant CD47 protein was conjugated to the surface of the CM5 chip by a target SPR reaction of 250 RU through an EDC-NHS reaction to be used, and for HBS-P, the sensogram obtained through a process of association for 3 minutes and dissociation for 10 minutes at a flow rate of 30 μL/minutes was analyzed with the BiaEvaluation software using a 1:1 binding model and global fitting.

recombinant CD47 protein, sequence (Q08722 19-323): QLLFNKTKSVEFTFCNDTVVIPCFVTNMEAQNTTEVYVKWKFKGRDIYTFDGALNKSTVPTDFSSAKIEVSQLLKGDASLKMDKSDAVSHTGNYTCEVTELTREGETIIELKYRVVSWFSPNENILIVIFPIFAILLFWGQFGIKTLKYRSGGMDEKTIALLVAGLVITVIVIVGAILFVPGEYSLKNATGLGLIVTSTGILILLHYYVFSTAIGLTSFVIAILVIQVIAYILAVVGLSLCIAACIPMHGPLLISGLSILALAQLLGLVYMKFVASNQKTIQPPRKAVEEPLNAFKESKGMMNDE

Sirpα: pure Sirpa (SEQ ID NO: 25), water-soluble domain of the original CD47 ligand
ka: 610000 M⁻¹ s⁻¹ | kd: 0.37 s⁻¹ | Kd (listed as Sirpa(wt)): 280 nM
